T1: OsGSTU17 (Oryza sativa, UniProt Q93WY5)
T1 construct: about 25 kDa subunit; dimeric enzyme; mutants L112A and W165A expressed at 20 °C
T1 sequence (Q93WY5 1-223): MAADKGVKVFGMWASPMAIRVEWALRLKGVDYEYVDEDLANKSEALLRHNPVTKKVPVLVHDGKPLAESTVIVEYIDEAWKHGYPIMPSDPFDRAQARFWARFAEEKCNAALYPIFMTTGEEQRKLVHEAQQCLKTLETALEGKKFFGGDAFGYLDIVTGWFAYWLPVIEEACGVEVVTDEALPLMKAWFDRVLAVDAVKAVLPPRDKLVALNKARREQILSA


Columns and labels:
OsGSTU17 = target: T1, OsGSTU17; assay: absorbance at […] nm, initial rate […] s, non-linear regression (Hyper32); assay type: biochemical; conditions: 1.0 mM GSH fixed, NBD-Cl 0.1-1.0 mM, 25 °C; apparent Km; wild-type value 'detected again', obtained from Yang et al. [31]; read-out: NBD-Cl / K m /; cited from earlier work
purified protein = substrate: O=[N+]([O-])c1ccc(Cl)c2nonc12; assay: purified protein; assay type: biochemical, Oryza sativa; conditions: 1.0 mM GSH fixed, NBD-Cl 0.1-1.0 mM, 25 °C, apparent Km

Molecule | Km (OsGSTU17) [µM] | Km (purified protein; Km above tested range) [µM] | Vmax (purified protein; Km above tested range) [µM/min/mg] | kcat (purified protein; Km above tested range) [s⁻¹] | kcat/Km (purified protein; Km above tested range) [M⁻¹ s⁻¹] | Km (purified protein) [µM] | Vmax (purified protein) [µM/min/mg] | kcat (purified protein) [s⁻¹] | kcat/Km (purified protein) [M⁻¹ s⁻¹]
O=[N+]([O-])c1ccc(Cl)c2nonc12 [NBD-Cl, 7-chloro-4-nitrobenzo-2-oxa-1,3-diazole] | 324 ± 16 |  |  |  |  |  |  |  | 
OsGSTU17 (Oryza sativa Japonica Group; W161A) (protein, about 25 kDa subunit; dimeric enzyme; mutants L112A and W165A expressed at 20 °C) MAADKGVKVFGMWASPMAIRVEWALRLKGVDYEYVDEDLANKSEALLRHNPVTKKVPVLVHDGKPLAESTVIVEYIDEAWKHGYPIMPSDPFDRAQARFWARFAEEKCNAALYPIFMTTGEEQRKLVHEAQQCLKTLETALEGKKFFGGDAFGYLDIVTGAFAYWLPVIEEACGVEVVTDEALPLMKAWFDRVLAVDAVKAVLPPRDKLVALNKARREQILSA |  | 1117 ± 22 | 0.594 | 0.999 | 894 |  |  |  | 
OsGSTU17 (Oryza sativa Japonica Group; F162A) (protein, about 25 kDa subunit; dimeric enzyme; mutants L112A and W165A expressed at 20 °C) MAADKGVKVFGMWASPMAIRVEWALRLKGVDYEYVDEDLANKSEALLRHNPVTKKVPVLVHDGKPLAESTVIVEYIDEAWKHGYPIMPSDPFDRAQARFWARFAEEKCNAALYPIFMTTGEEQRKLVHEAQQCLKTLETALEGKKFFGGDAFGYLDIVTGWAAYWLPVIEEACGVEVVTDEALPLMKAWFDRVLAVDAVKAVLPPRDKLVALNKARREQILSA |  | 3866 ± 871 | 0.869 | 1.57 | 407 |  |  |  | 
OsGSTU17 (Oryza sativa Japonica Group; M17A) (protein, about 25 kDa subunit; dimeric enzyme; mutants L112A and W165A expressed at 20 °C) MAADKGVKVFGMWASPAAIRVEWALRLKGVDYEYVDEDLANKSEALLRHNPVTKKVPVLVHDGKPLAESTVIVEYIDEAWKHGYPIMPSDPFDRAQARFWARFAEEKCNAALYPIFMTTGEEQRKLVHEAQQCLKTLETALEGKKFFGGDAFGYLDIVTGWFAYWLPVIEEACGVEVVTDEALPLMKAWFDRVLAVDAVKAVLPPRDKLVALNKARREQILSA |  | 3661 ± 843 | 0.83 | 0.809 | 221 |  |  |  | 
OsGSTU17 (Oryza sativa Japonica Group; L112A) (protein, about 25 kDa subunit; dimeric enzyme; mutants L112A and W165A expressed at 20 °C) MAADKGVKVFGMWASPMAIRVEWALRLKGVDYEYVDEDLANKSEALLRHNPVTKKVPVLVHDGKPLAESTVIVEYIDEAWKHGYPIMPSDPFDRAQARFWARFAEEKCNAAAYPIFMTTGEEQRKLVHEAQQCLKTLETALEGKKFFGGDAFGYLDIVTGWFAYWLPVIEEACGVEVVTDEALPLMKAWFDRVLAVDAVKAVLPPRDKLVALNKARREQILSA |  | 1487 ± 79 | 0.896 | 1.75 | 1180 |  |  |  | 
OsGSTU17 (Oryza sativa Japonica Group; N109A) (protein, about 25 kDa subunit; dimeric enzyme; mutants L112A and W165A expressed at 20 °C) MAADKGVKVFGMWASPMAIRVEWALRLKGVDYEYVDEDLANKSEALLRHNPVTKKVPVLVHDGKPLAESTVIVEYIDEAWKHGYPIMPSDPFDRAQARFWARFAEEKCAAALYPIFMTTGEEQRKLVHEAQQCLKTLETALEGKKFFGGDAFGYLDIVTGWFAYWLPVIEEACGVEVVTDEALPLMKAWFDRVLAVDAVKAVLPPRDKLVALNKARREQILSA |  |  |  |  |  | 781 ± 34 | 0.364 | 0.266 | 341

— publication PMC7017424, “Effects of Substrate-Binding Site Residues on the Biochemical Properties of a Tau Class Glutathione S-Transferase from Oryza sativa” (Genes, 2019)
